Data from PMC10786891, “Massively parallel profiling of RNA-targeting CRISPR-Cas13d”.

T1: EsCas13d, nuclease-dead (Eubacterium siraeum, UniProt B0MS50, R295A;H300A;R849A;H854A)
T1 sequence: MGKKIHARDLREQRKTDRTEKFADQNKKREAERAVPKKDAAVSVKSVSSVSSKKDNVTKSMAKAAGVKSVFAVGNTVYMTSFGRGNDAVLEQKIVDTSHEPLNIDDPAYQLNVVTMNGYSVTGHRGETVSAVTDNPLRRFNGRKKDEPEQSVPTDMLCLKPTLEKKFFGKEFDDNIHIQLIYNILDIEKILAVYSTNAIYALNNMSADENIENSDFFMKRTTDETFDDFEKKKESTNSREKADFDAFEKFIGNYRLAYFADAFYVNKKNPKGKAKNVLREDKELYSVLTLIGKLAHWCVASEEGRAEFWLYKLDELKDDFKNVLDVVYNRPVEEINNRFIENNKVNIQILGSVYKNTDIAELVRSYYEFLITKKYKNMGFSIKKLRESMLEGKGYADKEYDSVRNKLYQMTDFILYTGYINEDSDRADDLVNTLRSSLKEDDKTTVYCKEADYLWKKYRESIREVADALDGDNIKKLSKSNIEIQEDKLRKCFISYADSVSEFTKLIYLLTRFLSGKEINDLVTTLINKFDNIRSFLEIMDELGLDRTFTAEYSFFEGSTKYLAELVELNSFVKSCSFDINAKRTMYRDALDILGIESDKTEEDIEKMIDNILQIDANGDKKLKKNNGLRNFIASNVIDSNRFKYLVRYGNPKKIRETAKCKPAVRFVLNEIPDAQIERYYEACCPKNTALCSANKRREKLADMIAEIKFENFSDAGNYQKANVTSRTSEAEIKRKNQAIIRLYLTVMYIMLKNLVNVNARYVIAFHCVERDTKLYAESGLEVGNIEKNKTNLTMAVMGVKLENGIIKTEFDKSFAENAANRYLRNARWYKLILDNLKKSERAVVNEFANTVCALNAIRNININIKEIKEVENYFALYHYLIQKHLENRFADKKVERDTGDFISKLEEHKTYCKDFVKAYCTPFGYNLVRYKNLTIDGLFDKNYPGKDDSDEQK


These binders were tested against T1, EsCas13d, nuclease-dead (assay: crRNA (strand 1, pre-loaded); Mg2+; 40 mM Tris-HCl pH 7.5, 150 mM NaCl, 6 mM MgCl2, 1 mM DTT, 0.1% Tween-20, 0.2 mg/ml BSA; 25 C; 10 min per concentration, then washed). Conditions: tags: His6-TwinStrep-SUMO cleaved; N-terminal SNAP kept (SNAP-Surface 488); label: 3' end held by stalled T7 RNA polymerase.

Row | Binder | Kd [nM]
1 | target 1 A1C,C6A (mixed) RNA 1: CACCCGUGCAAAAAUGCAGGGGUCUAAAACUGAGCGGAUAACCUCUCUAUGG RNA 2: GGGAAUGGAUCCACAUCUACGAAUUCGUACCAUAGAGAGGUUAUCAGCUCCCCGAGAUCGGAAGAGCACACGU | 7 ± 0.5
2 | target 1 insU 3' of 13,insU 3' of 6 (mixed) RNA 1: CACCCGUGCAAAAAUGCAGGGGUCUAAAACUGAGCGGAUAACCUCUCUAUGG RNA 2: GGGAAUGGAUCCACAUCUACGAAUUCGUACCAUAGAGAGUGUUAUCCUGCUCACCGAGAUCGGAAGAGCACACGU | 17.9 ± 1.3
3 | target 1 insA 3' of 7,insC 3' of 1 (mixed) RNA 1: CACCCGUGCAAAAAUGCAGGGGUCUAAAACUGAGCGGAUAACCUCUCUAUGG RNA 2: GGGAAUGGAUCCACAUCUACGAAUUCGUACCAUAGAGAGGUUAUCACGCUCACCCGAGAUCGGAAGAGCACACGU | 5.8 ± 0.4
4 | target 1 insC 3' of 17,insC 3' of 16 (mixed) RNA 1: CACCCGUGCAAAAAUGCAGGGGUCUAAAACUGAGCGGAUAACCUCUCUAUGG RNA 2: GGGAAUGGAUCCACAUCUACGAAUUCGUACCAUAGCACGAGGUUAUCCGCUCACCGAGAUCGGAAGAGCACACGU | 27.3 ± 1.6
5 | target 1 C6U,A9G (mixed) RNA 1: CACCCGUGCAAAAAUGCAGGGGUCUAAAACUGAGCGGAUAACCUCUCUAUGG RNA 2: GGGAAUGGAUCCACAUCUACGAAUUCGUACCAUAGAGAGGUUGUCUGCUCACCGAGAUCGGAAGAGCACACGU | 14.2 ± 0.9
6 | target 1 C4U,U11C (mixed) RNA 1: CACCCGUGCAAAAAUGCAGGGGUCUAAAACUGAGCGGAUAACCUCUCUAUGG RNA 2: GGGAAUGGAUCCACAUCUACGAAUUCGUACCAUAGAGAGGCUAUCCGUUCACCGAGAUCGGAAGAGCACACGU | 27 ± 5
7 | target 1 G12A,G13A (mixed) RNA 1: CACCCGUGCAAAAAUGCAGGGGUCUAAAACUGAGCGGAUAACCUCUCUAUGG RNA 2: GGGAAUGGAUCCACAUCUACGAAUUCGUACCAUAGAGAAAUUAUCCGCUCACCGAGAUCGGAAGAGCACACGU | 5.2 ± 0.23
8 | target 1 insA 3' of 22,insC 3' of 5 (mixed) RNA 1: CACCCGUGCAAAAAUGCAGGGGUCUAAAACUGAGCGGAUAACCUCUCUAUGG RNA 2: GGGAAUGGAUCCACAUCUACGAAUUCGUACACAUAGAGAGGUUAUCCGCCUCACCGAGAUCGGAAGAGCACACGU | 27.7 ± 3.5
9 | target 1 insU 3' of 15,insA 3' of 4 (mixed) RNA 1: CACCCGUGCAAAAAUGCAGGGGUCUAAAACUGAGCGGAUAACCUCUCUAUGG RNA 2: GGGAAUGGAUCCACAUCUACGAAUUCGUACCAUAGAGUAGGUUAUCCGCAUCACCGAGAUCGGAAGAGCACACGU | 9.4 ± 0.8
10 | target 1 del11,del15 (mixed) RNA 1: CACCCGUGCAAAAAUGCAGGGGUCUAAAACUGAGCGGAUAACCUCUCUAUGG RNA 2: GGGAAUGGAUCCACAUCUACGAAUUCGUACCAUAGAAGGUAUCCGCUCACCGAGAUCGGAAGAGCACACGU | 35 ± 5
11 | target 1 insU 3' of 18,insU 3' of 2 (mixed) RNA 1: CACCCGUGCAAAAAUGCAGGGGUCUAAAACUGAGCGGAUAACCUCUCUAUGG RNA 2: GGGAAUGGAUCCACAUCUACGAAUUCGUACCAUAUGAGAGGUUAUCCGCUCUACCGAGAUCGGAAGAGCACACGU | 25.8 ± 2.4
12 | target 1 insC 3' of 8,insA 3' of 7 (mixed) RNA 1: CACCCGUGCAAAAAUGCAGGGGUCUAAAACUGAGCGGAUAACCUCUCUAUGG RNA 2: GGGAAUGGAUCCACAUCUACGAAUUCGUACCAUAGAGAGGUUAUCCACGCUCACCGAGAUCGGAAGAGCACACGU | 15 ± 0.6
13 | target 1 insG 3' of 18,insU 3' of 5 (mixed) RNA 1: CACCCGUGCAAAAAUGCAGGGGUCUAAAACUGAGCGGAUAACCUCUCUAUGG RNA 2: GGGAAUGGAUCCACAUCUACGAAUUCGUACCAUAGGAGAGGUUAUCCGUCUCACCGAGAUCGGAAGAGCACACGU | 65 ± 11
14 | target 1 insC 3' of 19,insA 3' of 11 (mixed) RNA 1: CACCCGUGCAAAAAUGCAGGGGUCUAAAACUGAGCGGAUAACCUCUCUAUGG RNA 2: GGGAAUGGAUCCACAUCUACGAAUUCGUACCAUCAGAGAGGUAUAUCCGCUCACCGAGAUCGGAAGAGCACACGU | 98 ± 16
15 | target 1 C7A,G15A (mixed) RNA 1: CACCCGUGCAAAAAUGCAGGGGUCUAAAACUGAGCGGAUAACCUCUCUAUGG RNA 2: GGGAAUGGAUCCACAUCUACGAAUUCGUACCAUAGAAAGGUUAUACGCUCACCGAGAUCGGAAGAGCACACGU | 14.6 ± 0.5
16 | target 1 insA 3' of 17,insU 3' of 6 (mixed) RNA 1: CACCCGUGCAAAAAUGCAGGGGUCUAAAACUGAGCGGAUAACCUCUCUAUGG RNA 2: GGGAAUGGAUCCACAUCUACGAAUUCGUACCAUAGAAGAGGUUAUCCUGCUCACCGAGAUCGGAAGAGCACACGU | 14.5 ± 0.8
17 | target 1 insU 3' of 18,insU 3' of 7 (mixed) RNA 1: CACCCGUGCAAAAAUGCAGGGGUCUAAAACUGAGCGGAUAACCUCUCUAUGG RNA 2: GGGAAUGGAUCCACAUCUACGAAUUCGUACCAUAUGAGAGGUUAUCUCGCUCACCGAGAUCGGAAGAGCACACGU | 47 ± 4
18 | target 1 insU 3' of 20,insU 3' of 2 (mixed) RNA 1: CACCCGUGCAAAAAUGCAGGGGUCUAAAACUGAGCGGAUAACCUCUCUAUGG RNA 2: GGGAAUGGAUCCACAUCUACGAAUUCGUACCAUUAGAGAGGUUAUCCGCUCUACCGAGAUCGGAAGAGCACACGU | 16.3 ± 1.6
19 | target 1 insG 3' of 18,insA 3' of 15 (mixed) RNA 1: CACCCGUGCAAAAAUGCAGGGGUCUAAAACUGAGCGGAUAACCUCUCUAUGG RNA 2: GGGAAUGGAUCCACAUCUACGAAUUCGUACCAUAGGAGAAGGUUAUCCGCUCACCGAGAUCGGAAGAGCACACGU | 61 ± 10
20 | target 1 insG 3' of 22,insC 3' of 22 (mixed) RNA 1: CACCCGUGCAAAAAUGCAGGGGUCUAAAACUGAGCGGAUAACCUCUCUAUGG RNA 2: GGGAAUGGAUCCACAUCUACGAAUUCGUACGCCAUAGAGAGGUUAUCCGCUCACCGAGAUCGGAAGAGCACACGU | 9.1 ± 0.4
21 | target 1 G5C,A20C (mixed) RNA 1: CACCCGUGCAAAAAUGCAGGGGUCUAAAACUGAGCGGAUAACCUCUCUAUGG RNA 2: GGGAAUGGAUCCACAUCUACGAAUUCGUACCCUAGAGAGGUUAUCCCCUCACCGAGAUCGGAAGAGCACACGU | 47 ± 7
22 | target 1 complement block 4-12 (mixed) RNA 1: CACCCGUGCAAAAAUGCAGGGGUCUAAAACUGAGCGGAUAACCUCUCUAUGG RNA 2: GGGAAUGGAUCCACAUCUACGAAUUCGUACCAUAGAGAGCAAUAGGCGUCACCGAGAUCGGAAGAGCACACGU | 19.6 ± 1.3
23 | target 1 insG 3' of 19,insA 3' of 5 (mixed) RNA 1: CACCCGUGCAAAAAUGCAGGGGUCUAAAACUGAGCGGAUAACCUCUCUAUGG RNA 2: GGGAAUGGAUCCACAUCUACGAAUUCGUACCAUGAGAGAGGUUAUCCGACUCACCGAGAUCGGAAGAGCACACGU | 42 ± 5
24 | target 1 complement block 1-11 (mixed) RNA 1: CACCCGUGCAAAAAUGCAGGGGUCUAAAACUGAGCGGAUAACCUCUCUAUGG RNA 2: GGGAAUGGAUCCACAUCUACGAAUUCGUACCAUAGAGAGGAAUAGGCGAGUCCGAGAUCGGAAGAGCACACGU | 13.3 ± 0.5
